The source of these data is article PMC6764946, “Non-enzymatic roles of human RAD51 at stalled replication forks”.

Data set [1] has as its target hsRAD51-WT (Homo sapiens, UniProt Q06609 1-339). The experiment in a line: fluorescence polarization; 1 mM ATP, 1 mM MgCl2, 50 uM CaCl2; apparent Kd; 25 mM Tris-HCl pH 7.8, 1 mM MgCl2, 1 mM ATP, 1 mM DTT, 50 mM NaCl (printed NaCl2), 50 uM CaCl2, 100 ug/ml BSA, 37 C, 30 min; 2.4 nM oligo, RAD51 10-1000 nM. Conditions: protein: recombinant; tags: C-terminal His6; label: 5' Alexa Fluor 488 (Methods; legend says fluorescein); single strand.

In data set [2] the target is hsRAD51-II3A (Homo sapiens, UniProt Q06609 1-339, R130A;R303A;K313A). The experiment in a line: fluorescence polarization; 1 mM ATP, 1 mM MgCl2, 50 uM CaCl2; apparent Kd; modest binding defect; 25 mM Tris-HCl pH 7.8, 1 mM MgCl2, 1 mM ATP, 1 mM DTT, 50 mM NaCl (printed NaCl2), 50 uM CaCl2, 100 ug/ml BSA, 37 C, 30 min; 2.4 nM oligo, RAD51 10-1000 nM. The note with it: protein: recombinant; tags: C-terminal His6; label: 5' Alexa Fluor 488 (Methods; legend says fluorescein); single strand.
Sequence of hsRAD51-II3A (Q06609 whole entry R130A/R303A/K313A): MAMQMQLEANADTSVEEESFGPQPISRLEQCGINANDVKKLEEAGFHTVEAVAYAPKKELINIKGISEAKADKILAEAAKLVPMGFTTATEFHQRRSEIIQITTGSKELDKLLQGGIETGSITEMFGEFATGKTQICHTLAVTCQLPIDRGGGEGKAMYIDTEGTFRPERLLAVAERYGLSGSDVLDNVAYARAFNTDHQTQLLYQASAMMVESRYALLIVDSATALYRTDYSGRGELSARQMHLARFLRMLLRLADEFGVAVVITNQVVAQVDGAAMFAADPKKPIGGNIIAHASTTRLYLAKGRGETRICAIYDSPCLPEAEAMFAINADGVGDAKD

Sequence of hsRAD51-WT (Q06609 whole entry): as the sequence (Q06609 whole entry R130A/R303A/K313A) above, with A130R, A303R, A313K counted along it

B1: 84-mer ssDNA (ssDNA)
DNA: GGTAGCGGTTGGGTGAGTGGTGGGGAGGGTCGGGAGGTGGCGTAGAAACATGATAGGAATGTGAATGAATGAAGTACAAGTAAA
Turning to B1, the Kd was 57 ± 1 nM in data set [1] and 132 ± 5 nM in data set [2].
